# Measurements as given in IntAct's records for PubMed 23824069.
# B1: Phosphatidylinositol 4,5-bisphosphate 3-kinase catalytic subunit gamma isoform (Homo sapiens), P48736 (parent)
# chain: MELENYKQPVVLREDNCRRRRRMKPRSAAASLSSMELIPIEFVLPTSQRKCKSPETALLHVAGHGNVEQMKAQVWLRALETSVAADFYHRLGPHHFLLLYQKKGQWYEIYDKYQVVQTLDCLRYWKATHRSPGQIHLVQRHPPSEESQAFQRQLTALIGYDVTDVSNVHDDELEFTRRGLVTPRMAEVASRDPKLYAMHPWVTSKPLPEYLWKKIANNCIFIVIHRSTTSQTIKVSPDDTPGAILQSFFTKMAKKKSLMDIPESQSEQDFVLRVCGRDEYLVGETPIKNFQWVRHCLKNGEEIHVVLDTPPDPALDEVRKEEWPLVDDCTGVTGYHEQLTIHGKDHESVFTVSLWDCDRKFRVKIRGIDIPVLPRNTDLTVFVEANIQHGQQVLCQRRTSPKPFTEEVLWNVWLEFSIKIKDLPKGALLNLQIYCGKAPALSSKASAESPSSESKGKVQLLYYVNLLLIDHRFLLRRGEYVLHMWQISGKGEDQGSFNADKLTSATNPDKENSMSISILLDNYCHPIALPKHQPTPDPEGDRVRAEMPNQLRKQLEAIIATDPLNPLTAEDKELLWHFRYESLKHPKAYPKLFSSVKWGQQEIVAKTYQLLARREVWDQSALDVGLTMQLLDCNFSDENVRAIAVQKLESLEDDDVLHYLLQLVQAVKFEPYHDSALARFLLKRGLRNKRIGHFLFWFLRSEIAQSRHYQQRFAVILEAYLRGCGTAMLHDFTQQVQVIEMLQKVTLDIKSLSAEKYDVSSQVISQLKQKLENLQNSQLPESFRVPYDPGLKAGALAIEKCKVMASKKKPLWLEFKCADPTALSNETIGIIFKHGDDLRQDMLILQILRIMESIWETESLDLCLLPYGCISTGDKIGMIEIVKDATTIAKIQQSTVGNTGAFKDEVLNHWLKEKSPTEEKFQAAVERFVYSCAGYCVATFVLGIGDRHNDNIMITETGNLFHIDFGHILGNYKSFLGINKERVPFVLTPDFLFVMGTSGKKTSPHFQKFQDICVKAYLALRHHTNLLIILFSMMLMTGMPQLTSKEDIEYIRDALTVGKNEEDAKKYFLDQIEVCRDKGWTVQFNWFLHLVLGIKQGEKHSA
# partner: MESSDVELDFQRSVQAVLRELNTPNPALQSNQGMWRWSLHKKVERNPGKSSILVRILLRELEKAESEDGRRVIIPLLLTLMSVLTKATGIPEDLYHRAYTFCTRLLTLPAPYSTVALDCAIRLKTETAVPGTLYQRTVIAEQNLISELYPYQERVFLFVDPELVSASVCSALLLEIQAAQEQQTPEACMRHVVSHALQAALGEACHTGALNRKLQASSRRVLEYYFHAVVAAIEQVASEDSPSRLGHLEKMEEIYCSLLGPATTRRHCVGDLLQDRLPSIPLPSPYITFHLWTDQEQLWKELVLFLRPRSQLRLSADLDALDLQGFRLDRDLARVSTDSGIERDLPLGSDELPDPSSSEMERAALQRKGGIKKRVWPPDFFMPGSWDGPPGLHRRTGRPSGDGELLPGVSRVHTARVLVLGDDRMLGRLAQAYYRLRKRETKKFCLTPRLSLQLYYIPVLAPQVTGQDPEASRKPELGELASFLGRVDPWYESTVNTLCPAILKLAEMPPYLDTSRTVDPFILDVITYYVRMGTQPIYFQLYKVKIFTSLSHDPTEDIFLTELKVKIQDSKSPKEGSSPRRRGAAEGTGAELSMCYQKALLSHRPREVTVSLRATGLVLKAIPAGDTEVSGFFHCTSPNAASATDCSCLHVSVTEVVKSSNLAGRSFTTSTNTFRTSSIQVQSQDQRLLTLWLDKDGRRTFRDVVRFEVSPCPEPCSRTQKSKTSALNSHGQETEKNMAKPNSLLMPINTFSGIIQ
# Variants of: B1
# Settings: with pi3r6_mouse Pik3r6, Q3U6Q4
row,Variant,effect of a mutation on the interaction
1,S582D,decreasing interaction strength
2,S582E,decreasing interaction strength
